Target: T1, Tn5 transposase EK54/MA56/LP372 (Escherichia coli transposon Tn5) (UniProt Q46731)
T1 sequence: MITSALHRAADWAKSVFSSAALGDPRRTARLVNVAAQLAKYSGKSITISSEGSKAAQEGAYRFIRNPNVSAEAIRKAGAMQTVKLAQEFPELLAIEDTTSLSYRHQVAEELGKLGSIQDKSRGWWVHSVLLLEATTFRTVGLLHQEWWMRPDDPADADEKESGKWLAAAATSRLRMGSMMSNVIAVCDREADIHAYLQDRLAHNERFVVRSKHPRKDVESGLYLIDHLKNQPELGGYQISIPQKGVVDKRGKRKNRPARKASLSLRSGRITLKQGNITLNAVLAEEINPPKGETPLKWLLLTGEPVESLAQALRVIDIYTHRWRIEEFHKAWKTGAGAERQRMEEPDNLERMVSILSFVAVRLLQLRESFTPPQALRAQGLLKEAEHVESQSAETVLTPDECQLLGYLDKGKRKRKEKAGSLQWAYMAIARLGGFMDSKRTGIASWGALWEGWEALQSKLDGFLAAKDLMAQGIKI
Conditions: pRZTL1 in vitro transposition; Mg acetate 10 mM, K glutamate 0.1 M, 20 C then 37 C; tet-resistance frequency, gel confirmed

Sequence: AGT (double strand) [Tn5 outside end (OE) wild type]
- activity: 0.1 % of cells

— patent publication US5948622
